Measured values published in publication PMC10388275 (Haematologica, 2023).

Molecular target: rmSiglec1-mFc (mouse, UniProt Q62230 20-1639)
Experiment: SPR

Sequence of rmSiglec1-mFc (Q62230 20-1639): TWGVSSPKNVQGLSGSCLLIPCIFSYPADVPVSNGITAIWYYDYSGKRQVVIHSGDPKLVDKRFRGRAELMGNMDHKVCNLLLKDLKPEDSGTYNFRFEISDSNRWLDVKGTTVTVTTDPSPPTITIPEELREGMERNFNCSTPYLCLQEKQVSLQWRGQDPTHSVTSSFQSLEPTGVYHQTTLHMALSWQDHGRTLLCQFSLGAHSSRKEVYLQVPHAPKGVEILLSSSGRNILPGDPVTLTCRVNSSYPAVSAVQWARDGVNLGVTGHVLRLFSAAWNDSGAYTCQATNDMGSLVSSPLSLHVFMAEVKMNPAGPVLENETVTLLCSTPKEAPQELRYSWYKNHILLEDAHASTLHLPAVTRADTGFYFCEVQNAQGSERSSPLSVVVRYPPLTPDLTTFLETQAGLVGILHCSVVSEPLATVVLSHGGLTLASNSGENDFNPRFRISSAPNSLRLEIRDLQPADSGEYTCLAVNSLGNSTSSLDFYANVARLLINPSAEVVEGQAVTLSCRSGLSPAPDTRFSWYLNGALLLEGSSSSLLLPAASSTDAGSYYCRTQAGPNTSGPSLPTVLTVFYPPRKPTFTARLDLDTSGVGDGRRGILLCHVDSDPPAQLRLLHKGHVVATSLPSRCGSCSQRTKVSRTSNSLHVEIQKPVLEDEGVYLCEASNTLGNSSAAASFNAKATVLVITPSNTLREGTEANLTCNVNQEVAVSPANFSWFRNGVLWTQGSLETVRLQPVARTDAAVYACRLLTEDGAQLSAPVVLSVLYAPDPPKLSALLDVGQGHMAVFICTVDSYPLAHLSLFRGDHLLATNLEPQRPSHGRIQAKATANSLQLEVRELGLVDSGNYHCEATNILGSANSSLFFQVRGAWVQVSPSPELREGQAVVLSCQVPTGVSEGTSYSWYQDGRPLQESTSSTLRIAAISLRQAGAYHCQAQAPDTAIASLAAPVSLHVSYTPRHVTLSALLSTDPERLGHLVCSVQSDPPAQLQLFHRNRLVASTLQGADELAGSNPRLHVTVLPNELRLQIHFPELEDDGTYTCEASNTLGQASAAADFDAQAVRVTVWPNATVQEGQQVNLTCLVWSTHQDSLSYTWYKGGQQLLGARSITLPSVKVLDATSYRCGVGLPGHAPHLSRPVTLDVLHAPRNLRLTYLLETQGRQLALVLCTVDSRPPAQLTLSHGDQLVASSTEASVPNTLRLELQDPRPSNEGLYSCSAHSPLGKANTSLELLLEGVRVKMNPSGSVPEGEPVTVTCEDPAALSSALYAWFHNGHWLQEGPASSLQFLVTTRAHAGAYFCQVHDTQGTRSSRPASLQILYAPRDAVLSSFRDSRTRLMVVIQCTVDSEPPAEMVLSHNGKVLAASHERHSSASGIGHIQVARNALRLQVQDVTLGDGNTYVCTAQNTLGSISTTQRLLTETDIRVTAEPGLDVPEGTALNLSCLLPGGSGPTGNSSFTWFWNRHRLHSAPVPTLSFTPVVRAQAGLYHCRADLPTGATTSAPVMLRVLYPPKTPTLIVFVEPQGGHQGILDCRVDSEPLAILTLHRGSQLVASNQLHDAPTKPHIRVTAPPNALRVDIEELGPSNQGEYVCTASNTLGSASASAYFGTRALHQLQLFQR

B1: rmCD43-hFc (Fc fusion, mouse, UniProt P15702 20-248, looked up)
chain: DSLQRTTMLPSTPHITAPSTSEAQNASPSVSVGSGTVDSKETISPWGQTTIPVSLTPLETTELSSLETSAGASMSTPVPEPTASQEVSSKTSALLPEPSNVASDPPVTAANPVTDGPAANPVTDGTAASTSISKGTSAPPTTVTTSSNETSGPSVATTVSSKTSGPPVTTATGSLGPSSEMHGLPATTATSSVESSSVARGTSVSSRKTSTTSTQDPITTRSPSQESSG
Question: For B1, which Kd is on record?
Answer: 107 nM
